The values below are quoted from earlier work in PMC3750086.

For one data set, the target named is PDL1 (Homo sapiens) (UniProt Q9NZQ7).
The next data set has as its target CD28 (Homo sapiens) (UniProt P10747).

Chain of UniProt Q9NZQ7 (Q9NZQ7 19-238): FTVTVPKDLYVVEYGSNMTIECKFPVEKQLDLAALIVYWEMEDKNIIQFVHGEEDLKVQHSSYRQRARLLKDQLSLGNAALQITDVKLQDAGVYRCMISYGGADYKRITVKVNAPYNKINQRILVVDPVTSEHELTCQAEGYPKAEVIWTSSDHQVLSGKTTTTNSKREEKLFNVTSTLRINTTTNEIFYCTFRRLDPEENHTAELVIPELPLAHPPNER

Broadly, the Kd is the equilibrium constant for the complex coming apart. Take CD80 (from UniProt P33681): the Kd with PDL1 (Homo sapiens) was 1400 nM; with CD28 (Homo sapiens), 4000 nM.
